From article PMC13418734

How the values were obtained:
[1] = target: Fluc^K378C-K496C (Fluc^CDS1, C-terminal domain sensor) (firefly); test: FRET or BRET; single-molecule FRET (TIRF) within AF555/AF647-labelled Fluc immobilised on a neutravidin coverslip; the low-FRET (<0.3) state is read as DnaK bound; DnaJ 0.6 uM, DnaK 20 uM, GrpE 1.2 uM and HtpG 10 uM (KJEG); ATP; imaging buffer, room temperature
[2] = target: Fluc^A12C-K329C (Fluc^NDS1, N-terminal domain sensor) (firefly); test: as above

DnaK (Escherichia coli Hsp70) (from UniProt P0A6Y8 1-638) (natural protein)
percent of the time DnaK bound (<0.3 FRET) after 15 min [1]: 15%
percent of the time DnaK bound (<0.3 FRET) after 15 min [2]: 15%
